Experimental data taken from the DeepSol protein solubility set.

Test: soluble on expression in E. coli; label from the status in PepcDB or PDB records

## MTAGGERVTERGTGSDPVDLFIIGGGINGCGIARDAAGRGLSVTLAEMGDLAQATSSASTKLFHGGLRYLEYFEFRLVREALEERETLLVAMPHISWPMRFVLPWQPEMRFAGDTPTARLLGRLMPWARGRRPAWLIRLALETYDRLGGRKILPPARSVDLTRDPAGRALQPRFTKGWEYSDCWVEDSRLVVLNARDAEIRGATILTRTKVVGAERRGDLWHVTTEGARGRQVHRARALVNAGGPWVARIIRETLALPTTEGVRLVRGSHIVTKRLFDHDRCYFFQGTDGRIIFAIPYETDFTLIGTTDQDHRGAPDEARCTPEEQDYLCTFASDYFRKPVTREDIVWTYSGVRPLHDDGARSATAATRDYVLSLDSRGAPLLNVFGGKITTYRRLAESAMAKLAGHFPQARGAWTARVPLPGGDFPWDGAPALAEGLRRDYPFLTERWAMRLVRAYGTDARNLLGPARSALDLGRDFGATLTEAEVRWLMDREYAERAEDVVWRRSKLGLRLTPEEIAALDGWMKDAGGAMEARADTGLEHHHHHH
  soluble on expression in E. coli: soluble

## NGSQQQILSNISSMGTNTIDVRPGKGFGDRRSGRVKTLTADDAKSLESLPFVDSVTPSLSNSLTVRYANQDATASVEGVGEDYFRVRGYEIAKGQFWDEESVNSLAQEAVIDDNTRKEMFADRNP
  soluble on expression in E. coli: not soluble

## MSLKSLEIFSGAGGLAKGLELAGFQHASFIELNKDACNSLRSNFNPKLVYQGDVADFDLSSQEGIEVIAGGPPCQPFSLGGKHLAHEDRRDMFPHAVRYVEYYRPKAFIFENVKGLLRKSFADYFEYILLRLTYPNLGILQNEDWKGHLTRLKEIEFNLYKGIKYKVSYQLLNAADYGVPQKRERVVIVGIRADLDIDWKFPKRTHSEDRLNWEKYVTGEYWEKHNEPKRFNKDIAEKLQKKYGIFEPEKKPWQTVRDTLSDIPHPLGNHKITGHEYRDGARIYPGHTGSGIDEPSKTIKAGGHGVPGGENMIRYDDGTVRYFTSYEAKLLQTFPEEFVISGAWGEAMRQIGNAVPVKLSEILGKHLMGVLSEKSSLHNEGHHHHHH
  soluble on expression in E. coli: soluble

## VLTDIQIAQSCKMKPITQVAAELGIDEEELELYGKYKAKLSDKLWERVKDRPDGKLVLVTAINPTPAGEGKTTTTVGLGQAMARIGKKAVIALREPSLGPVMGIKGGAAGGGYSQVVPMEDINLHFTGDMHAITAANNLLSAAIDNHIQQGNELNIDVRQIIWKRAMDMNDRALRNIVVGLGGKANGVPREDGFQITVASEVMAVLCLSTGLMDLKERLGRILIGYTYDGKPVFAKDLKVNGAMALLLKDAIKPNLVQTLENTPAIVHGGPFANIAHGCNSIVATRLGLKLADYCITEAGFGADLGAEKFFNIKCRYAGLKPDLVVLVATIRALKYNGGVKKENLGIENLPALEKGFVNLEKHIENIRKFQVPLLVAINHFDTDSEAEIEYVKNRCKALNVEVAFSDVFSKGSEGGIELAEKVVKLTETQKSNFKPLYDVNLSIREKIEIIAREIYGADSVNILPAAERAIKKIEELKMDKLPICVAKTQYSLSDDPTLLGRPQGFVITVREIKLSSGAGFIVAITGDIMTMPGLPKVPAAEKIDIDENGVITGLF
  soluble on expression in E. coli: soluble

## MNRWEKELDKYAELAVKVGVNIQPGQTLFVNAPLEAAPLVRKIAKTAYETGAKHVYVEWNDEALTYIKFHHAPEEAFSEYPMWRARAMEELAEQGAAFLSIYAPNPDLLKDVDPKRIATANKTAAQALANYRSAIMADRNCWSLISVPTPAWAQKVFGDLRDEEAIDKLWEAIFRITRIDHDDPIAAWRKHNDRLARIVDYLNNKQYKQLVYEAPGTNLTVELVDGHVWHGGAATSQSGVRFNPNIPTEEVFTMPHKDGVNGTVRNTKPLNYNGNVIDGFTLTFKDGQVVDFSAEQGYETLKHLLDTDDGARRLGEVALVPHQSPVSLSNLIFYNTLFDENAACHLALGKAYPTNIENGASLSKEELDRRGVNDSLVHVDFMIGSADLNIDGVTKDGKREPIFRSGNWAFELS
  soluble on expression in E. coli: not soluble

## MIIEFEEKLLDLIDAQVVNASSDELFAGGYLRGHISLSAAQCEEEGITELDVLKQRIEQSLEAARSELSPADRAIVAELWQQLAAQA
  soluble on expression in E. coli: not soluble

## SLNSVTRLDGANRYEVAVNVSKQGWTSASTVIVANGKAYADVLSATPFAYRNNAPVLLTEASKLPTATKNRISQLKPSKVIVIGGTVSVQNGVVSEIKKLGVSSVERIGGANRYEVAANIANKLPSNSKAVIANGTAYADSLAIGAYAARNGIPILLTSSNSIPTATKNAMKSKGTTSTIVVGGEVSISSSVYKQLASPTRIGGSNRYEVAANVVKKYYSSAKNAIISNGYAYADGLTGSVLAAKQNRPMMFTNASSLPTPTREVIGSKNMTTFTVLGGTVSLQSNVVSQLKN
  soluble on expression in E. coli: not soluble

## MSLKKPLIVQKFGGTSVGSIERMQTVAEHIIKAKNDGNQVVVVVSAMAGETNRLVGLAQQVDSVPNARELDVLLSAGEQVSMALVAMTLHKMGYAARSLTGAQANIVTDNQHNDATIKHIDTRTITELLEQDFIVIVAGFQGINENGDITTLGRGGSDTSAVALAGALNADECQIFTDVDGIYTCDPRIVPSARKLDVIDFPSMEEMARKGAKVLHLPCVQYAWKHAVPLRVLSTFEVNQGSLIKGSAATHAVCGIALQRDMALIRVESESFPSIIKQCQMLGIEVCTTIDEPTHSAFVIKRDAYAKLQLVGADKIRGSEPVSLITKVGIQAGALVAHARQTLAQHGIDVRYVSASEQSSMLMLDPANVDRAANILHETYVTSEIPQEFGLKQTFLGEGHHHHHH
  soluble on expression in E. coli: not soluble

## VEHEQQVTESPSLASVPTADELFDFHIGDRVLIGNVQPGILRFKGETSFAKGFWAGVELDKPEGNNNGTYDGIAYFECKEKHGIFAPPQKISHIPENFDDYVDINEDED
  soluble on expression in E. coli: soluble

## MGSDKIHHHHHHVKTNLEHWVTLQEKGYFENHPFYQERQVNDDAARVEKATPLTKDMKIAIIGCGYGRESASFCRRVRKVYGIDVSWTILAKALERMLADNHVNFTPVLASQWKTILPDGGLDLVYSVVVFQHLTRDLVDDYIGGLKGKLRPGGRFYVQFCDSDTGEADADLRFYEPNVRWTEDDIRILARRHGLDLLSLDSERVTPTASWHWALMEKADDR
  soluble on expression in E. coli: not soluble

## MGSDKIHHHHHHMLGVCYYPEHWGTEKVEEDFRRMKELGIEYVRIGEFAWSRIESERGKFNWDWLDKTLELAEKMGLKIVLGTPTATPPKWLIDEHPEILPVDKDGRVKNFGSRRHYCFSSPVYREEVKRIVTIIVKRYGKHPAVAGWQTDNEYGCHDTVRCYCPRCKKAFQKWLERKYEGDIKKLNEAWGTVFWSQEYRSFDEIELPNLTPADPNPSHLLDYYRLASDQVVEFNKLQVEIIREYSPGRFITHNFMSGFTDFDHYKLSKDLDFATWDNYPLGHTLVFLRMKGETKNPFDRVGHPDIISFSHDLYRGVGRGRFWVMEQQAGPVNWAPYNLWPAKGAVRLWTWQAFAHGAEVVSYFRWRQAPFAQEQMHSGLLAPDSAPYPGYHEVKQVFEELKNIDINEPVESEVALVFDYETAWVFSIQPHGEGVNYIDLVFRFYSALRRLGLNVDIVPPGSSLDGYKMIVVPSLAIVKEEVLDTFKKYDGLLVLGPRSGSKTETFQIPPEMPPGLLKEIIPVEVRQVESLGDNVETLVWNGKEYPVSIWREDVDPTITEVIARFKDGFGAIFRKENVFYLAFWPNGDFLVDFFEALSKESGIETKRMPEGVRIQRRGEYVFSFNFTSEEVDLEIPTKVQIVLGDQKIPPYGLLIWKENER
  soluble on expression in E. coli: not soluble

## MSLKPLAYRMRPTKIEDIIGQQHLVAEDKIIGRMVQAKHLSSMILYGPPGIGKTSIATAIAGSTSIAFRKLNAVINNKKDMEIVAQEAKMSGQVILILDEVHRLDKGKQDFLLPYLENGMIILIGATTANPYHAINPAIRSRTQIFELEPLTPELIKQALERALHDEHRGLGTYSVSIDDQAMEHFAHGCGGDVRSALNALELAVLSTKESADGEIHITLETAEECLQKKSFSHDKDGDAHYDVLSAFQKSIRGSDANAALHYLARLIEAGDLESIARRLLVIAYEDIGLASPQAGPRVLNAIQTAERVGFPEARIPLANAVIELCLSPKSNSAILAIDEALADIRAGKIGDVPKHLKDAHYKGAQELGRGIDYKYPHNYDNGWVEQQYLPDPLKNKQYYKPKQTGKFESALKQVYDKLMKGIITITTDPNSSSVDKLAAALEHHHHHH
  soluble on expression in E. coli: soluble

## LTAEEIIQYISDAKKSTPIKVYLNGNFEGITYPESFKVFGSEQSKVIFCEADDWKPFYEAYGSQFEDIEIEMDRRNSAIPLKDLTNTN
  soluble on expression in E. coli: soluble

## MNDVYAEAKLNKPDFHTAYTLKKDDGGAIALGEGSTGTVTEVTDPEAIATTVVEWTVTPAEALALVKKSKTEMFATVTYESVDGTRGDITITMKASIAMPSGVIKNDQKITEAWSPDKSYVKADVKEPVTVAVTDFKLDLFDVFEGRKVVVSDVTEANFPSFTKDKLTAKFIFSGAKDVTIGTDKYTFTVTANGTQLNASKNSATATKIATIDADGIITYNKADENAHALLNKSAYNVDPFTVGIEIVVTNECDEILPLTGNKFDVKFLRPINVVDLKSAELQDATTGTAKIDMSKLLGLTDWRGQAFAVAPIDFYTYYGVTGSAISIDKDQIMTTLNASEAAPKLLKDVAPNMSINYTCDLQKIGGDITYGDLVYANGKFTINAPFKLFIPVTVKYTFGEVTSTVTLTITPTHQ
  soluble on expression in E. coli: not soluble

## MWRLRMSLGISEAFDLRPDYIISVIKDTRAKLVGFQFPEGLKRKGPELAKKVEKATGAEIIISGDPCFGACDLDRTLLDHVDILFHFGHAELEDIRLSNKVYFIETRSSVDVLHVIEKAVPELKGQKIGLITTVQHVHKLPDVCGVLERMGKTCVIGRGDSRIAYAGQVLGCNFSAARDEDCDEYLYIGSGDFHPLGVALSTKKRVLAADPFSGEVREVDPSRILRQRSAVIAKSLDAQVFGIIVSSKNGQKRMELASSLKELAKKHGKESHLILIDLVTPDQLLQFKVDAFVNTACPRLAIDEVGRFPAPMLTPQEFEIVLGEREWEKLVLDEITEEPVLEHHHHHH
  soluble on expression in E. coli: not soluble

## MSYDVIVRNGLWFDGTGRPPQVRTLGIRDGVVATVSAKPLDETGCPEVIDAGGKWVVPGFIDVHTHYDAEVLLDPGLRESVRHGVTTVLLGMCSLSTVYSDAEDAADLFSRVEAVPRQFVLGALESRKTWSNPAEYVAAIDALPLGPNIASLLGHSDLRASVLGLDRATTRGVVPTDDELETMADRLDAALDAGMLGMSGMDAAIDKLDGDRFRSRALPSTFATWRERRRLIKVLRKRGRILQSAPNVAKAQEALNFFLESSSLFGRRRGVRMSLLVSADAKSSPGAARVIGMGTRLLNKTLDAKVRFQHLPVPFELYSDGIDLPVFEEFGAGTAALHLRDQLERNKLLADPEYRRRFRRSFDRRKLGPTLWHRDFHDATIVECPDESLIGKTFGRIADERGIHPLDAFLDVLVDNGEKNVRWTTIVANHRPKVLDQLANDPAVHMGFSDAGAHLRNMAFYNYPLRLLKRVRDAQLSGRPFLTTERAVYRLTAEVADWFGVDAGTLREGDRADFVVIDPNCLNSDVDAYHEETVPFYGGLSRMVNRNDDAVVATAVNGTVVFGKGEFRDGYGDTVKSGRYLRAGADSRLKTAVLEHHHHHH
  soluble on expression in E. coli: not soluble

## MGSDKIHHHHHHMAKIFDIKYGNDEKQKLDLYLQDSVAPLVFYTHGGGWWQGDKRKDTKIFDSLFSAGFSVASVNYRLADKNNPYPAQLDDCHSALTFLQQSDYKFRKDKIALLGASSGANISVSLSIETGYPTVSWSGQFDFKGFLKTHTAITGRKAVDNPDPDKGSRQQSYYKWLLEKLFNGDLSRVGEATLQHKITSKTGPVLLINSAAELAPVMEVYKMQEAYLENGIEVDTIIFPGDRHALGYADDALKPTIDFLETHLQ
  soluble on expression in E. coli: not soluble

## HHHHHHHHHHMPPKGWRKDAQGNYPTTSYIKEQENITIQDLLFPKSTIVNLAREVPQQSGKKLLINKDASLALQRGATVFVNHLLLFAREIAKSQDKKSCSVDDVLSALDHIGHSALKGPVRDKLDEYQAAVEQRKKEKLDSGEVDADGDIDMGEDKENVPVEKVKEHDEIEEQGDALQDVEESSEKKQKTESQDVETRVQNLEQT
  soluble on expression in E. coli: not soluble

## MSTLAPLFLAKHPDGEERQVIRPNVWETSCADTETLSIFHIEGMADPDLLCRVLNLFAVQSFTPERVRADREDHKIRLLLTFPGLSQHRASVIAEKLRSLVTVLAVRLEFSPHAGKVRPSVSEPLLASVV
  soluble on expression in E. coli: not soluble
